Experimental data: the supplement of paper PMC10567573

B1: PDS5B (parent)
chain: ITYPPGVKEISDKISKEEMVRRLK

Variants of: B1
Assay: protein stability index of a GFP-peptide fusion (GPS, HEK-293T) (PSI 1-6); higher = more stable
Conditions: c terminus: a fixed tail appended
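Further: lentivirally expressed fusions sorted by FACS into six bins by GFP to DsRed ratio, PSI derived from sequencing read proportions per bin multiplied by bin number.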

Row | Variant | protein stability index
1 | ITYPPGVKEISDKISKEEMVRRLS [K24S] | 3.23
2 | ITYPPGVKEESDKISKEEMVRRLK [I10E] | 4.38
3 | ITYPPGVKENSDKISKEEMVRRLK [I10N] | 4.68
4 | ITYPPGVKEQSDKISKEEMVRRLK [I10Q] | 4.36
5 | ITYPPGVKEGSDKISKEEMVRRLK [I10G] | 4.61
6 | ITYPPGVKELSDKISKEEMVRRLK [I10L] | 4.33
7 | ITYPPGVKEFSDKISKEEMVRRLK [I10F] | 4.31
8 | ITYPPGVKEASDKISKEEMVRRLK [I10A] | 4.03
9 | ITYPPGVKEDSDKISKEEMVRRLK [I10D] | 4.88
10 | ITYPPGVKEPSDKISKEEMVRRLK [I10P] | 4.27
11 | ITYPPHVKEISDKISKEEMVRRLK [G6H] | 4.18
12 | ITYPPFVKEISDKISKEEMVRRLK [G6F] | 3.31
13 | ITYPPDVKEISDKISKEEMVRRLK [G6D] | 4.43
14 | ITYPPEVKEISDKISKEEMVRRLK [G6E] | 5.04
15 | ITYPPLVKEISDKISKEEMVRRLK [G6L] | 3.65
16 | ITYPPSVKEISDKISKEEMVRRLK [G6S] | 3.96
17 | ITYPPWVKEISDKISKEEMVRRLK [G6W] | 3.3
18 | ITYPPMVKEISDKISKEEMVRRLK [G6M] | 3.33
19 | ITYPPAVKEISDKISKEEMVRRLK [G6A] | 4.26
20 | ITYPPCVKEISDKISKEEMVRRLK [G6C] | 2.19
21 | ITYPPYVKEISDKISKEEMVRRLK [G6Y] | 2.88
22 | ITYPPGVKDISDKISKEEMVRRLK [E9D] | 3.98
23 | ITYPPGVKNISDKISKEEMVRRLK [E9N] | 3.59
24 | ITYPPGVKTISDKISKEEMVRRLK [E9T] | 3.15

Row | Variant | protein stability index
25 | ITYPPGVKHISDKISKEEMVRRLK [E9H] | 3.43
26 | ITYPPGVKKISDKISKEEMVRRLK [E9K] | 3.66
27 | ITYPPGVKCISDKISKEEMVRRLK [E9C] | 3.13
28 | ITYPPGVKPISDKISKEEMVRRLK [E9P] | 2.75
29 | ITYPPGVKSISDKISKEEMVRRLK [E9S] | 3.81
30 | ITYPPGVKEISDKQSKEEMVRRLK [I14Q] | 5.02
31 | ITYPPGVKEISDKHSKEEMVRRLK [I14H] | 5.35
32 | ITYPPGVKEISDKNSKEEMVRRLK [I14N] | 2.93
33 | ITYPPGVKEISDKRSKEEMVRRLK [I14R] | 4.38
34 | ITYPPGVKEISDKWSKEEMVRRLK [I14W] | 3.03
35 | ITYPPGVKEISDKSSKEEMVRRLK [I14S] | 4.86
36 | ITYPPGVKEISDKTSKEEMVRRLK [I14T] | 4.08
37 | ITYPPGVKEISDKLSKEEMVRRLK [I14L] | 4.08
38 | ITYPPGVKEISDKFSKEEMVRRLK [I14F] | 3.03
39 | ITYPPGVKEISDKASKEEMVRRLK [I14A] | 4.5
40 | ITYPPGVKEISDKISKEEMVTRLK [R21T] | 4.63
41 | ITYPPGVKEISDKISKEEMVLRLK [R21L] | 4.15
42 | ITYPPGVKEISDKISKEEMVKRLK [R21K] | 3.34
43 | ITYPPGVKEISDKISKEEMVARLK [R21A] | 2.21
44 | ITYPPGVKEISDKISKEEMVVRLK [R21V] | 4.11
45 | ITYPPGVKEISDKISKEEMVMRLK [R21M] | 3.97
46 | ITYPPGVKEISDKISKEEMVHRLK [R21H] | 3.77
47 | ITYPPGVKEISDKISKEEMVGRLK [R21G] | 4.75
48 | ITYPPGVKEISDKISKEEMVDRLK [R21D] | 4.46

Row | Variant | protein stability index
49 | ITYPPGVKEISDKISKEEMVPRLK [R21P] | 4.52
50 | ITYPPGVLEISDKISKEEMVRRLK [K8L] | 3.7
51 | ITYPPGVCEISDKISKEEMVRRLK [K8C] | 3.31
52 | ITYPPGVEEISDKISKEEMVRRLK [K8E] | 3.78
53 | ITYPPGVIEISDKISKEEMVRRLK [K8I] | 3.12
54 | ITYPPGVNEISDKISKEEMVRRLK [K8N] | 3.83
55 | ITYPPGVVEISDKISKEEMVRRLK [K8V] | 4.67
56 | ITYPPGVKEISDEISKEEMVRRLK [K13E] | 4.34
57 | ITYPPGVKEISDFISKEEMVRRLK [K13F] | 3.42
58 | ITYPPGVKEISDTISKEEMVRRLK [K13T] | 3.96
59 | ITYPPGVKEISDLISKEEMVRRLK [K13L] | 3.3
60 | ITYPPGVKEISDAISKEEMVRRLK [K13A] | 4.08
61 | ITYPPGVKEISDQISKEEMVRRLK [K13Q] | 4.33
62 | ITYPPGVKEISDMISKEEMVRRLK [K13M] | 3.76
63 | ITYPPGVKEISDIISKEEMVRRLK [K13I] | 4.1
64 | ITYPPGVKEISDYISKEEMVRRLK [K13Y] | 3.38
65 | ITYPPGVKEISDVISKEEMVRRLK [K13V] | 3.51
66 | ITYPPGVKEISGKISKEEMVRRLK [D12G] | 3.15
67 | ITYPPGVKEISLKISKEEMVRRLK [D12L] | 3.18
68 | ITYPPGVKEISYKISKEEMVRRLK [D12Y] | 2.46
69 | ITYPPGVKEISNKISKEEMVRRLK [D12N] | 4.05
70 | ITYPPGVKEISQKISKEEMVRRLK [D12Q] | 3.29
71 | ITYPPGVKEISPKISKEEMVRRLK [D12P] | 3.7
72 | ITYPPGVKEISKKISKEEMVRRLK [D12K] | 3.43

Row | Variant | protein stability index
73 | ITYPPGVKEISEKISKEEMVRRLK [D12E] | 3.57
74 | ITYPPGVKEISHKISKEEMVRRLK [D12H] | 3.83
75 | DTYPPGVKEISDKISKEEMVRRLK [I1D] | 4.99
76 | LTYPPGVKEISDKISKEEMVRRLK [I1L] | 3.95
77 | MTYPPGVKEISDKISKEEMVRRLK [I1M] | 4.9
78 | ETYPPGVKEISDKISKEEMVRRLK [I1E] | 4.74
79 | ATYPPGVKEISDKISKEEMVRRLK [I1A] | 5.15
80 | YTYPPGVKEISDKISKEEMVRRLK [I1Y] | 3.78
81 | ITYPPGPKEISDKISKEEMVRRLK [V7P] | 3.47
82 | ITYPPGLKEISDKISKEEMVRRLK [V7L] | 3.67
83 | ITYPPGWKEISDKISKEEMVRRLK [V7W] | 3.82
84 | ITYPPGAKEISDKISKEEMVRRLK [V7A] | 4.21
85 | ITYPPGGKEISDKISKEEMVRRLK [V7G] | 4.01
86 | ITYPPGCKEISDKISKEEMVRRLK [V7C] | 4
87 | ITYPPGQKEISDKISKEEMVRRLK [V7Q] | 4.16
88 | ITYPPGEKEISDKISKEEMVRRLK [V7E] | 3.09
89 | ITYHPGVKEISDKISKEEMVRRLK [P4H] | 3.91
90 | ITYQPGVKEISDKISKEEMVRRLK [P4Q] | 3.33
91 | ITYLPGVKEISDKISKEEMVRRLK [P4L] | 3.16
92 | ITYIPGVKEISDKISKEEMVRRLK [P4I] | 1.94
93 | ITYCPGVKEISDKISKEEMVRRLK [P4C] | 2.81
94 | ITYAPGVKEISDKISKEEMVRRLK [P4A] | 3.44
